Experimental data from the supplement of paper PMC10567573.

B1: WSB1 (parent)
chain: FSHDGLHVASLADDKMVRFWRIDE
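Further: lentivirally expressed fusions sorted by FACS into six bins by GFP to DsRed ratio, PSI derived from sequencing read proportions per bin multiplied by bin number.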

Variants of: B1
Test: protein stability index of a GFP-peptide fusion (GPS, HEK-293T) (PSI 1-6); higher = more stable
Conditions: c terminus: a fixed tail appended
With FSHDGLHVASLADDKMVRFWEIDE [R21E] the protein stability index was 1.8. Variant FSHDGLHVASLADDKMVRFWHIDE [R21H] has a protein stability index of 2.42. With FSHDGLHVASLADDKMVRFWDIDE [R21D] the protein stability index was 2.19. Variant FSHDGLHVASLADDKMVRFWAIDE [R21A] has a protein stability index of 1.39. Work on FSHDGLHVASLADDKMVRFWGIDE [R21G] yielded a protein stability index of 1.47. For FSHDGLHVASLADDKMVRFWKIDE [R21K], the protein stability index was 2. With FSHDGLHVASLADDKMVRFWIIDE [R21I] the protein stability index was 3.26. In the case of FSHDGLHVASLADDKMVRFWCIDE [R21C], the protein stability index is reported as 3.2. FSHDGLHVASLADDKMYRFWRIDE [V17Y] showed a protein stability index of 1.91. For FSHDGLHVASLADDKMCRFWRIDE [V17C], the protein stability index was 3.55. With FSHDGLHVASLADDKMFRFWRIDE [V17F] the protein stability index was 1.58. Variant FSHDGLHVASLADDKMTRFWRIDE [V17T] has a protein stability index of 1.56. With FSHDGLHVASLADDKMLRFWRIDE [V17L] the protein stability index was 1.27. In the case of FSHDGLHVASLADDKMKRFWRIDE [V17K], the protein stability index is reported as 1.85. FSHDGLHVASLADDKMDRFWRIDE [V17D] showed a protein stability index of 1.96. Work on FSHDGLHVASLADDKMGRFWRIDE [V17G] yielded a protein stability index of 1.03. FSHDGLHVASLADDKMIRFWRIDE [V17I] showed a protein stability index of 2.42. For FSHDGLHVASLADDKMRRFWRIDE [V17R], the protein stability index was 2.03. FSHDGLHVASLADDKMQRFWRIDE [V17Q] gave a protein stability index of 2.14. For FSHDGLHVASLADDKMERFWRIDE [V17E], the protein stability index was 2.75. Variant FSHDGLHVASLADDKMSRFWRIDE [V17S] has a protein stability index of 1.54. With FSHDGLHVASLADDKMHRFWRIDE [V17H] the protein stability index was 1.51. For FSHDGLHVASLADDKMMRFWRIDE [V17M], the protein stability index was 1.79. Work on FSHDGLHVASLADDKMNRFWRIDE [V17N] yielded a protein stability index of 1.5. In the case of FSHDGLHVASLADDKMPRFWRIDE [V17P], the protein stability index is reported as 2.42. FSHDGLHVASLADDKMARFWRIDE [V17A] gave a protein stability index of 1.15. With FSHDGLHVSSLADDKMVRFWRIDE [A9S] the protein stability index was 2.17. Variant FSHDGLHVQSLADDKMVRFWRIDE [A9Q] has a protein stability index of 1.89. FSHDGLHVVSLADDKMVRFWRIDE [A9V] showed a protein stability index of 2.55. Variant FSHDGLHVTSLADDKMVRFWRIDE [A9T] has a protein stability index of 1.25. For FSHDGLHVWSLADDKMVRFWRIDE [A9W], the protein stability index was 2.44. FSHDGLHVASLADDLMVRFWRIDE [K15L] showed a protein stability index of 2.49. FSHDGLHVASLADDYMVRFWRIDE [K15Y] gave a protein stability index of 1.34. FSHDGLHVASLADDSMVRFWRIDE [K15S] gave a protein stability index of 1.76. For FSHDGLHVASLADDRMVRFWRIDE [K15R], the protein stability index was 2.02. Work on FSHDGLHVASLADDCMVRFWRIDE [K15C] yielded a protein stability index of 1.53. FSHDGLHVASLADDFMVRFWRIDE [K15F] gave a protein stability index of 1.35. In the case of FSHDGLHVASLADDAMVRFWRIDE [K15A], the protein stability index is reported as 2.18. With FSHDGLHVASLADDVMVRFWRIDE [K15V] the protein stability index was 2.78. For FSHDGLHVASLADDDMVRFWRIDE [K15D], the protein stability index was 2.33. FSHDGLHVASLADDTMVRFWRIDE [K15T] gave a protein stability index of 1.44. With FSHDGLHVASLADDEMVRFWRIDE [K15E] the protein stability index was 2.68. FSHDGLHVASLADDWMVRFWRIDE [K15W] showed a protein stability index of 1.67. FSHDGLHVASLADDQMVRFWRIDE [K15Q] showed a protein stability index of 1.04. Variant FSHDGLHVASLADDIMVRFWRIDE [K15I] has a protein stability index of 1.49. With FSHDGLHVASLADDHMVRFWRIDE [K15H] the protein stability index was 1.65. FSHDGLHVASLADDNMVRFWRIDE [K15N] gave a protein stability index of 1.65. Work on FSHDGLHVASLADDGMVRFWRIDE [K15G] yielded a protein stability index of 1.69. With FSHDGLHVASLADHKMVRFWRIDE [D14H] the protein stability index was 2.2. With FSHDGLHVASLADCKMVRFWRIDE [D14C] the protein stability index was 2.36. FSHDGLHVASLADNKMVRFWRIDE [D14N] gave a protein stability index of 2.03. FSHDGLHVASLADEKMVRFWRIDE [D14E] gave a protein stability index of 1.58. Work on FSHDGLHVASLADYKMVRFWRIDE [D14Y] yielded a protein stability index of 1.52. FSHDGLHVASLADQKMVRFWRIDE [D14Q] gave a protein stability index of 1.78. Variant FSHDGLHVASLADPKMVRFWRIDE [D14P] has a protein stability index of 2.05. With FSHDGLHVASLADTKMVRFWRIDE [D14T] the protein stability index was 1.83. With FSHDGLHVASLADIKMVRFWRIDE [D14I] the protein stability index was 3.14. For FSHDGLHVASLADFKMVRFWRIDE [D14F], the protein stability index was 2.93. FSHDGLHVASLADRKMVRFWRIDE [D14R] showed a protein stability index of 1.95. For FSHDGLHVASLADWKMVRFWRIDE [D14W], the protein stability index was 2.53. Work on FSHDGLHVASLADLKMVRFWRIDE [D14L] yielded a protein stability index of 1.58. In the case of FSHDGLHVASLADMKMVRFWRIDE [D14M], the protein stability index is reported as 1.97. Work on FSHDGLHVASLADKKMVRFWRIDE [D14K] yielded a protein stability index of 1.96. For FSHDGLHVASLADDKMVRFVRIDE [W20V], the protein stability index was 2.77. FSHDGLHVASLADDKMVRFFRIDE [W20F] gave a protein stability index of 2.09. Variant FSHDGLHVASLADDKMVRFIRIDE [W20I] has a protein stability index of 2.85. With FSHDGLHVASLADDKMVRFMRIDE [W20M] the protein stability index was 2.67. In the case of FSHDGLHVASLADDKMVRFDRIDE [W20D], the protein stability index is reported as 3.51. In the case of FSHDGLHVASLADDKMVRFNRIDE [W20N], the protein stability index is reported as 2.66. With FSHDGLHVASLADDKMVRFLRIDE [W20L] the protein stability index was 1.88. FSHDGLHVASLADDKMVRFSRIDE [W20S] gave a protein stability index of 2.7. Variant FSHDGLHVASLADDKMVRFARIDE [W20A] has a protein stability index of 2.48. Work on FSHDGLHVASLADDKMVRFPRIDE [W20P] yielded a protein stability index of 2.6. In the case of FSHDGLHVASLADDKMVRFERIDE [W20E], the protein stability index is reported as 3.18. FSHDGLHVASLADDKMVRFYRIDE [W20Y] showed a protein stability index of 2.26. FSHDGLHVASLADDKMVRFKRIDE [W20K] showed a protein stability index of 2.69. Variant FSHDGLHVASLADDKMVRFHRIDE [W20H] has a protein stability index of 2.67. FSHDGLHVASLADDKMVRFGRIDE [W20G] showed a protein stability index of 2.79. FSHDGLHVASLADDKMVRFCRIDE [W20C] gave a protein stability index of 2.42. For FSHDGLHVASLADDKMVRFTRIDE [W20T], the protein stability index was 2.85. FSHDGLHVASLADDKMVRRWRIDE [F19R] gave a protein stability index of 3.11. Variant FSHDGLHVASLADDKMVRKWRIDE [F19K] has a protein stability index of 2.38. For FSHDGLHVASLADDKMVRHWRIDE [F19H], the protein stability index was 2.66. Variant FSHDGLHVASLADDKMVRMWRIDE [F19M] has a protein stability index of 3.75. In the case of FSHDGLHVASLADDKMVRLWRIDE [F19L], the protein stability index is reported as 3.32. In the case of FSHDGLHVASLADDKMVRTWRIDE [F19T], the protein stability index is reported as 3.13. For FSHDGLHVASLADDKMVRQWRIDE [F19Q], the protein stability index was 2.03. With FSHDGLHVASLADDKMVRVWRIDE [F19V] the protein stability index was 2.15. FSHDGLHVASLADDKMVRCWRIDE [F19C] gave a protein stability index of 2.32. FSHDGLHVASLADDKMVRSWRIDE [F19S] showed a protein stability index of 2.42. For FSHDGLHVASLADDKMVRAWRIDE [F19A], the protein stability index was 2.27. FSHDGLHVASLADDKMVREWRIDE [F19E] gave a protein stability index of 3.92. FSHDGLHVASLADDKMVRPWRIDE [F19P] gave a protein stability index of 2.65. In the case of FSHDGLHVASLADDKMVRDWRIDE [F19D], the protein stability index is reported as 3.37.
